Measured values as given in doi:10.1101/215566.

Target: CBD-NpuDnaE_(NΔ16)
Test: SPR

NpuDnaEC16-eGFP (domain or fragment)
Kd: 1.6 nM
